Reference: paper PMC8904820

Molecular target: HRT1-REF bridging protein (HRBP) (Hevea brasiliensis)

Hevea rubber transferase 1 (HRT1) (enzyme)
prenyltransferase activity of HRT1/HRBP-nanodisc complexes, raw [14C]IPP incorporation (12.5 nCi [14C]IPP in the reaction): 12200 dpm
